Test results reported in patent publication US20240400685A1 (Genmab, published 2024).

Target: human CD3 epsilon (human, UniProt P07766 23-207)
Assay: cell-based or functional assay

Sequence of human CD3 epsilon (P07766 23-207): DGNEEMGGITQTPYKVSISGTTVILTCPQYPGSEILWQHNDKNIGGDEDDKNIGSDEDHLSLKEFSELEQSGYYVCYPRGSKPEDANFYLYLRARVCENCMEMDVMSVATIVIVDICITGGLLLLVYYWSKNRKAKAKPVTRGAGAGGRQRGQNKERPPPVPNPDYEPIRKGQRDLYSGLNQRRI

Binder | Biological Activity (rel %), T-cell activation assay [rel %]
epcoritamab CIEX-HPLC pre-acidic 1 fraction (bispecific antibody, human IgG1, kappa, lambda, N103 deamidated (49.9 rel %); N106 deamidated (15.1 rel %); residual signal peptide SEA before N-terminal E1 (42.9 rel %); trace levels of a 3005a HC fragment around N103/N106) heavy 1: not shown light 1: not shown heavy 2: EVQLVESGGGLVQPDRSLRLSCAASGFTFHDYAMHWVRQAPGKGLEWVSTISWNSGTIGYADSVKGRFTISRDNAKNSLYLQMNSLRAEDTALYYCAKDIQYGNYYYGMDVWGQGTTVTVSSASTKGPSVFPLAPSSKSTSGGTAALGCLVKDYFPEPVTVSWNSGALTSGVHTFPAVLQSSGLYSLSSVVTVPSSSLGTQTYICNVNHKPSNTKVDKRVEPKSCDKTHTCPPCPAPEFEGGPSVFLFPPKPKDTLMISRTPEVTCVVVAVSHEDPEVKFNWYVDGVEVHNAKTKPREEQYNSTYRVVSVLTVLHQDWLNGKEYKCKVSNKALPAPIEKTISKAKGQPREPQVYTLPPSREEMTKNQVSLTCLVKGFYPSDIAVEWESNGQPENNYKTTPPVLDSDGSFFLYSRLTVDKSRWQQGNVFSCSVMHEALHNHYTQKSLSLSPG light 2: not shown | 6
epcoritamab CIEX-HPLC acidic 2b fraction (bispecific antibody, human IgG1, kappa, lambda, N106 deamidated (61.4 rel %); N103 deamidated (5.8 rel %); non-consensus glycosylation G2F (3.4 rel %) and A1F at N106; residual signal peptide SEA before N-terminal E1 (12.1 rel %)) heavy 1: not shown light 1: not shown heavy 2: EVQLVESGGGLVQPDRSLRLSCAASGFTFHDYAMHWVRQAPGKGLEWVSTISWNSGTIGYADSVKGRFTISRDNAKNSLYLQMNSLRAEDTALYYCAKDIQYGNYYYGMDVWGQGTTVTVSSASTKGPSVFPLAPSSKSTSGGTAALGCLVKDYFPEPVTVSWNSGALTSGVHTFPAVLQSSGLYSLSSVVTVPSSSLGTQTYICNVNHKPSNTKVDKRVEPKSCDKTHTCPPCPAPEFEGGPSVFLFPPKPKDTLMISRTPEVTCVVVAVSHEDPEVKFNWYVDGVEVHNAKTKPREEQYNSTYRVVSVLTVLHQDWLNGKEYKCKVSNKALPAPIEKTISKAKGQPREPQVYTLPPSREEMTKNQVSLTCLVKGFYPSDIAVEWESNGQPENNYKTTPPVLDSDGSFFLYSRLTVDKSRWQQGNVFSCSVMHEALHNHYTQKSLSLSPG light 2: not shown | 28
epcoritamab CIEX-HPLC acidic 3 fraction (bispecific antibody, human IgG1, kappa, lambda, N106 deamidated (76.0 rel %); trace levels of N103 deamidation) heavy 1: not shown light 1: not shown heavy 2: EVQLVESGGGLVQPDRSLRLSCAASGFTFHDYAMHWVRQAPGKGLEWVSTISWNSGTIGYADSVKGRFTISRDNAKNSLYLQMNSLRAEDTALYYCAKDIQYGNYYYGMDVWGQGTTVTVSSASTKGPSVFPLAPSSKSTSGGTAALGCLVKDYFPEPVTVSWNSGALTSGVHTFPAVLQSSGLYSLSSVVTVPSSSLGTQTYICNVNHKPSNTKVDKRVEPKSCDKTHTCPPCPAPEFEGGPSVFLFPPKPKDTLMISRTPEVTCVVVAVSHEDPEVKFNWYVDGVEVHNAKTKPREEQYNSTYRVVSVLTVLHQDWLNGKEYKCKVSNKALPAPIEKTISKAKGQPREPQVYTLPPSREEMTKNQVSLTCLVKGFYPSDIAVEWESNGQPENNYKTTPPVLDSDGSFFLYSRLTVDKSRWQQGNVFSCSVMHEALHNHYTQKSLSLSPG light 2: not shown | 90
epcoritamab CIEX-HPLC acidic 1 fraction (bispecific antibody, human IgG1, kappa, lambda, N103 deamidated (85.3 rel %); residual signal peptide SEA before N-terminal E1 (13.0 rel %)) heavy 1: not shown light 1: not shown heavy 2: EVQLVESGGGLVQPDRSLRLSCAASGFTFHDYAMHWVRQAPGKGLEWVSTISWNSGTIGYADSVKGRFTISRDNAKNSLYLQMNSLRAEDTALYYCAKDIQYGNYYYGMDVWGQGTTVTVSSASTKGPSVFPLAPSSKSTSGGTAALGCLVKDYFPEPVTVSWNSGALTSGVHTFPAVLQSSGLYSLSSVVTVPSSSLGTQTYICNVNHKPSNTKVDKRVEPKSCDKTHTCPPCPAPEFEGGPSVFLFPPKPKDTLMISRTPEVTCVVVAVSHEDPEVKFNWYVDGVEVHNAKTKPREEQYNSTYRVVSVLTVLHQDWLNGKEYKCKVSNKALPAPIEKTISKAKGQPREPQVYTLPPSREEMTKNQVSLTCLVKGFYPSDIAVEWESNGQPENNYKTTPPVLDSDGSFFLYSRLTVDKSRWQQGNVFSCSVMHEALHNHYTQKSLSLSPG light 2: not shown | 9
epcoritamab CIEX-HPLC acidic 2a fraction (bispecific antibody, human IgG1, kappa, lambda, N103 deamidated (29.6 rel %); N106 deamidated (22.6 rel %); non-consensus glycosylation A1F at N106 (15.0 rel %); residual signal peptide SEA before N-terminal E1 (26.9 rel %)) heavy 1: not shown light 1: not shown heavy 2: EVQLVESGGGLVQPDRSLRLSCAASGFTFHDYAMHWVRQAPGKGLEWVSTISWNSGTIGYADSVKGRFTISRDNAKNSLYLQMNSLRAEDTALYYCAKDIQYGNYYYGMDVWGQGTTVTVSSASTKGPSVFPLAPSSKSTSGGTAALGCLVKDYFPEPVTVSWNSGALTSGVHTFPAVLQSSGLYSLSSVVTVPSSSLGTQTYICNVNHKPSNTKVDKRVEPKSCDKTHTCPPCPAPEFEGGPSVFLFPPKPKDTLMISRTPEVTCVVVAVSHEDPEVKFNWYVDGVEVHNAKTKPREEQYNSTYRVVSVLTVLHQDWLNGKEYKCKVSNKALPAPIEKTISKAKGQPREPQVYTLPPSREEMTKNQVSLTCLVKGFYPSDIAVEWESNGQPENNYKTTPPVLDSDGSFFLYSRLTVDKSRWQQGNVFSCSVMHEALHNHYTQKSLSLSPG light 2: not shown | 25
